The DeepSol protein solubility set

Test: soluble on expression in E. coli; label from the status in PepcDB or PDB records

Sequence | soluble on expression in E. coli
MGSDKIHHHHHHYDLSDVNTDDAVMGESWVAPLGMGYVTSDDVVNVEKVPSIREVDGAYVMIYDGEMKIKGKSLRAASDKVEIASEDITTGDIDGLFDGDFVLALTNPHITLKSNVKNASLDCSLSIEAENTSKKEATSSDFTLSTVSPNIWIGPLDPKTDAFKFVKNEKLPGIVQIVPQKIHLSLSADSKQWTNAPADALSELRYAVELPLTPAPEFSAVSVERIEDAFDEDFVDYIFSDGSARIYGEVTNEMPFDMSIEMVIMDENNVPVDIQFPAQEVKGQSGEVIFEITKEDMPKMKDARHIDLNLHLTGRDQGEALKKGQKTTFNLKLKKEGGISI | not soluble
MGSDKIHHHHHHYKKKFSGEILCAALWGVNLLIGTDSGLMLLDRSGQGKVYPLISRRRFDQMTVLEGQNILATISGRKRRIRVYYLSWLRQKILRTEGAGSANTTEKRNGWVNVGDLQGAIHFKIVRYERIKFLVVGLESSIEIYAWAPKPYHKFMSFKSFGSLSHVPLIVDLTVEDNARLKVLYGSTGGFHAIDLDSAAVYDIYTPAQSGQTTTPHCIVVLPNSNGMQLLLCYDNEGVYVNTYGRMTKNVVLQWGEMPSSVAYISTGQIMGWGNKAIEIRSVDTGHLDGVFMHKKAQKLKFLCERNDKVFFSSAKGGGSCQIYFMTLNKPGLTNW | not soluble
MGSDKIHHHHHHYLNTLQRELENAGIESRLVRRFGYTQEAVDWADAVFSAGGDGTFLMASSRVRTKHKPVIGINTDPQGSEGYMCLMRKLPEENLAGALKKLFSGNFEWLNRQRIRITVTGDDGISDAIELHDQQLNRDPATTRWTDNPRSPAREIEECMSLSPPVKKRMISEAVEIPEVEKETVELPVLALNEVFIGESLSSRVSYYEIGINDAQMLKQKSSGITICTGTGSTSWNFNINKLTEQCVQDLMKIVAEHCNLPQIPHGDKNAVSEICTKFNQQLIFDPDRKQLAFSVRDPIFNATFPPTDPRGFADKICIKSRGYDAHLVIDGGISYRFNDGSEAVMEVRDEDTLRTVVFR | not soluble
MGSGESTTRRVSFGLDEDDRVRILRGVKLSEDVLQRMRNTNADPRPPANNKENQGHQTRTPSTSDAQAPKTQAKTTFPDSKEELKKRYEQQQAIIQEELARIARKEREAARQDISRAVQRERAQTRQESERAKQLGKQLDKKEAELKALEAFYQEQITQLEKKNEERFRMSAEQFHAAATRSEANIKARNVEPVCLNLQAQILNCYRENREQTLQCSDLAKEYMQCINAAKKNLLVNHG | not soluble
MGSLVREWVGFQQFPAATQEKLIEFFGKLKQKDMNSMTVLVLGKGGVGKSSTVNSLIGEQVVRVSPFQAEGLRPVMVSRTMGGFTINIIDTPGLVEAGYVNHQALELIKGFLVNRTIDVLLYVDRLDVYAVDELDKQVVIAITQTFGKEIWCKTLLVLTHAQFSPPDELSYETFSSKRSDSLLKTIRAGSKMRKQEFEDSAIAVVYAENSGRCSKNDKDEKALPNGEAWIPNLVKAITDVATNQRKAIHVDAAALEHHHHHH | soluble
MGSNGGGGGGGKQVLWEFHATGPRNISNPSWRDLIRSSWTDPNYRRIAVSCFVQAAYLLELDRQEKRNGESALAPNWWKPFKYKLVRPLIDSRDGSIYGVLLEWDQLAALSDLIVLRPNGAPKVVLAIRGTVLKQSTVVRDLEDDFRFFTMESLRGSVRFTGALEALKSAIDKRGSNNVCIAGHSLGAGFALQVGKTLAQDGIFVECHLFNPPSVSLGMGLRKLQEKAGKVLKRYVSGSSSNATELSHPTEDGGAASEIGEEKLIKEVKRWVPNLYINSCDYICCFYADRSGVATVTAEKHDGHSGTHSKLFVIAKGPKKFLEAHGLQQWWSDDYELQLAVHDSKLMYRHLKSLYVNES | soluble
MGSRENLYFQGLEHHHHHHHMGHETKAQLKDYVEVKIMKIKTTVAALSVLSVLSFGAFAADSIDAAQAQNREAIGTVSVSGVASSPMDMREMLNKKAEEKGATAYQITEARSGDTWHATAELYK | soluble
MGSSHHHHHHGGTGENLYFQGGSGSSCRGIVVAGVTNQARTQMAEAFLRAFTGGRVFVCSGGVHHLGTVHPLAVVTMAEMGIDVSRQSSSSLAGVRRQRETYDVYVSVDAPYTERTSDRYQRRYTDTQAAQQSSMGAAGLSAPCASSTSDFCDPLLASATPAHWTVSQDTTDGRQSWTLWSPRNPAIYHERSTRKLQDHLYEGEPLFMRVRPHGLRKACRVQRRWEVPELTQRFALETEAEQKARFVQARDLLGSLALVLVRDLEREYGETMLDEAAVAAYEKVAATEC | not soluble
MGSSHHHHHHGKTIFVIVPTNEEQVAFLEALAKQDELNFDWQNPPTEPGQPVVILIPSDMVEWFLEMLKAKGIPFTVYVEEGGSENLYFQGGGGGGLSLPAFSPHCHSLRLGFHVFRKQRARTKTAAVAEQRGLRWTHTTARTAKSGWPPRGHTDTHTHTHTHTHITWEYASSGMTLVFEARRLPFGSISEVYAASIQPIVALHALDKLPLWDRCMLVAVLPVVQQRHSASAAAAPPSTVVRPSLTRNDSDNADAAAASLSSATVRAANHEERVNASPELAGAPSLEDVALALTIVRALDELEVVYDSSISTRAELEQQQQQQPSLPAASLAEAPRRAFKQPKKTSEELLMEQLLQERFTDTAPYLLESSDEGGENSADAAVDVAMCFTVKGESLGIGSATIFGGHGYHP | not soluble
MGSSHHHHHHGKTIFVIVPTNEEQVAFLEALAKQDELNFDWQNPPTEPGQPVVILIPSDMVEWFLEMLKAKGIPFTVYVEEGGSENLYFQGGGGGGRAAGTGDFTAAQRTNTLAVLQAFGRAIPKLGEKWAGNDFCSWEAVLCNAPDVYVSGISPTYAGTLPEMPVNVDYRHVVIKQLDFSEMGPGLSGTLPASWHSMTSLESLSIEKCESISGSVPPEWGSMTSLSVLNLRGTGISGTLPPQWSGMSKARSLQLQDCDLSGSLPSSWSAIPMLASVSLKGNKFCGVCRTRGIRRLVLLWTSRTSTRAATAWLLRTAQRPPLSPPPRQRPPRTSLTFPLRRGPRLSRLPQPALRHRLNPQPPLRHRLNPRPLLPQQTRRLLHQRRSARWMGVRCARGTPLRGARGAVRTTS | not soluble
MGSSHHHHHHGSTKYALVGDVGGTNARLALCDIASGEISQAKTYSGLDYPSLEAVIRVYLEEHKVEVKDGCIAIACPITGDWVAMTNHTWAFSIAEMKKNLGFSHLEIINDFTAVSMAIPMLKKEHLIQFGGAEPVEGKPIAVYGAGTGLGVAHLVHVDKRWVSLPGEGGHVDFAPNSEEEAIILEILRAEIGHVSAERVLSGPGLVNLYRAIVKADNRLPENLKPKDITERALADSCTDCRRALSLFCVIMGRFGGNLALNLGTFGGVFIAGGIVPRFLEFFKASGFRAAFEDKGRFKEYVHDIPVYLIVHDNPGLLGSGAHLRQTLGHIL | soluble
MGSSHHHHHHSSGLVPRGSAVPLCKQALEDLEKTSGHDHPDVATMLNILALVYRDQNKYKEAAHLLNDALAIREKTLGKDHPAVAATLNNLAVLYGKRGKYKEAEPLCKRALEIREKVLGKFHPDVAKQLSNLALLCQNQGKAEEVEYYYRRALEIYATRLGPDDPNVAKTKNNLASCYLKQGKYQDAETLYKEILTRAHEKEFGSVNGDNKPIWMHAEEREESKDKRRDSAPYGEYGSWYKACKVDSPTVNTTLRSLGALYRRQGKLEAAHTLEDCASRNRK | soluble
MGSSHHHHHHSSGLVPRGSGDYDYLIKLLALGDSGVGKTTFLYRYTDNKFNPKFITTVGIDFREKRVVYNAQGPNGSSGKAFKVHLQLWDTAGQERFRSLTTAFFRDAMGFLLMFDLTSQQSFLNVRNWMSQLQANAYCENPDIVLIGNKADLPDQREVNERQARELADKYGIPYFETSAATGQNVEKAVETLLDLIMKRMEQCVEKTQIPDTVNGG | soluble
MGSSHHHHHHSSGLVPRGSHGLVPRGSHMSDDMSMGLPSSAGEHGVLRSMQEVAMSSQEASKMLRTYNIAWWGNNYYDVNELGHISVCPDPDVPEARVDLAQLVKTREAQGQRLPALFCFPQILQHRLRSINAAFKRARESYGYNGDYFLVYPIKVNQHRRVIESLIHSGEPLGLEAGSKAELMAVLAHAGMTRSVIVCNGYKDREYIRLALIGEKMGHKVYLVIEKMSEIAIVLDEAERLNVVPRLGVRARLASQGSGKWQSSGGEKSKFGLAATQVLQLVETLREAGRLDSLQLLHFHLGSQMANIRDIATGVRESARFYVELHKLGVNIQCFDVGGGLGVDYEGTRSQSDCSVNYGLNEYANNIIWAIGDACEENGLPHPTVITESGRAVTAHHTVLVSNIIGVERNEYTVPTAPAEDAPRALQSMWETWQEMHEPGTRRSLREWLHDSQMDLHDIHIGYSSGIFSLQERAWAEQLYLSMCHEVQKQLDPQNRAHRPIIDELQERMADKMYVNFSLFQSMPDAWGIDQLFPVLPLEGLDQVPERRAVLLDITCDSDGAIDHYIDGDGIATTMPMPEYDPENPPMLGFFMVGAYQEILGNMHNLFGDTEAVDVFVFPDGSVEVELSDEGDTVADMLQYVQLDPKTLLTQFRDQVKKTDLDAELQQQFLEEFEAGLYGYTYLEDE | soluble
MGSSHHHHHHSSGLVPRGSHMALGSGVVPFENLQIEEGIITDAEVARFDNIRQGLDFGYGPDPLAFVRWHYDKRKNRIYAIDELVDHKVSLKRTADFVRKNKYESARIIADSSEPRSIDALKLEHGINRIEGAKKGPDSVEHGERWLDELDAIVIDPLRTPNIAREFENIDYQTDKNGDPIPRLEDKDNHTIDATRYAFERDMKKGGVSLWG | soluble
MGSSHHHHHHSSGLVPRGSHMASKSFQLLEPYNIKANLRPYQIKGFSWMRFMNKLGFGICLADDMGLGKTLQTIAVFSDAKKENELTPSLVICPLSVLKNWEEELSKFAPHLRFAVFHEDRSKIKLEDYDIILTTYAVLLRDTRLKEVEWKYIVIDEAQNIKNPQTKIFKAVKELKSKYRIALTGTPIENKVDDLWSIMTFLNPGLLGSYSEFKSKFATPIKKGDNMAKEELKAIISPFILRRTKYDKAIINDLPDKIETNVYCNLTPEQAAMYKAEVENLFNNIDSVTGIKRKGMILSTLLKLKQIVDHPALLKGGEQSVRRSGKMIRTMEIIEEALDEGDKIAIFTQFVDMGKIIRNIIEKELNTEVPFLYGELSKKERDDIISKFQNNPSVKFIVLSVKAGGFGINLTSANRVIHFDRWWNPAVEDQATDRVYRIGQTRNVIVHKLISVGTLEEKIDQLLAFKRSLFKDIISSGDSWITELSTEELRKVIELSVGGY | soluble
MGSSHHHHHHSSGLVPRGSHMDLSAASHRIPLSDGNSIPIIGLGTYSEPKSTPKGACATSVKVAIDTGYRHIDGAYIYQNEHEVGEAIREKIAEGKVRREDIFYCGKLWATNHVPEMVRPTLERTLRVLQLDYVDLYIIEVPMAFKPGDEIYPRDENGKWLYHKSNLCATWEAMEACKDAGLVKSLGVSNFNRRQLELILNKPGLKHKPVSNQVECHPYFTQPKLLKFCQQHDIVITAYSPLGTSRNPIWVNVSSPPLLKDALLNSLGKRYNKTAAQIVLRFNIQRGVVVIPKSFNLERIKENFQIFDFSLTEEEMKDIEALNKNVRFVELLMWRDHPEYPFHDEY | soluble
MGSSHHHHHHSSGLVPRGSHMFTTKLAEKVVSAWKAKISQPALKAAQDGVIDTVAAALGGVTEHSVQVALKYVAATGGSGDSKLWGVNQRSNMFDAAFVNGMAAHAIDFDDSFPVMRGHPSSSLVPAIFAVGEHVGANGHNCLKSYVLGIEVVATLGRAVGKGHYLAGWHPTSTLGVFGATTAAALLLGADEEQLRNAWGIAASNSCGIIKNFGTMTKPMHTGSAARNGVLSAWLSMQSFTGCQTVFDDAEGILAMYGAQPGPELFNAMQKFGTPWAIIAPGLYKKSWPSCYANHKPLAGLFAIMKEHGLTGQDISHVDVGFLPGVEKPLLYMDPRTTEEAKFSIEANIGAALLDGEVSLASFEIEHLDRPAMRAAMKKVTRFDMPSETTFSGTTGYTDIVVHTADGKIERRIEATPGSLEDPMDDAHLERKFKDCTAWMPFGESGLLFDRLRSLTADQGIKTVQP | soluble
MGSSHHHHHHSSGLVPRGSHMGEMLERQKKRLPSKAKYLKYTASITETGNHEADSSVIFRPHHSDVTCSNARRAESRTLPQICSCILLDHGRRTRPEVRTGMVSLHGSFKGFPCFGIRRGISHVLPGQKLRGSCDNWKKRQN | soluble
